Kd, koff and kon data for three molecules are collected here from patent US20240101715A1 (KINDRED BIOSCIENCES, published 2024).

Numbering of substitutions follows the chain as printed.

One test concerns the target T1, human TNFα (human, UniProt P01375 77-233, biotinylated (EZ-Link NHS-LC-biotin) in Example 2).
T1 construct: Bought recombinant protein
Kind of test: BLI (ForteBio), biotinylated TNFα on streptavidin tips, antibody in solution, 1:1 model. As for the experimental part: (§1) The binding analysis was performed as follows. Briefly, canine and human TNFα were biotinylated. The free unreacted biotin was removed from biotinylated TNFα by extensive dialysis. Biotinylated TNFα was captured on streptavidin sensor tips. The association of five different concentrations (150, 50, 17, 5.6, and 1.9 nM) of TNFα antibody and TNFα (human and canine, in different tests) was monitored for ninety seconds. Dissociation was monitored for 600 seconds. A buffer only blank curve was subtracted to correct for any drift. The data were fit to a 1:1 binding model using ForteBio™ data analysis software to determine the kon (association rate constant), koff (dissociation rate constant) and the KD (dissociation constant). […] The buffer for dilutions and all binding steps was: 200 mM phosphate, 150 mM NaCl, 0.02% Tween-20, 0.05% sodium azide, and 0.1 mg BSA, pH7.4.
(In general: In BLI a coated tip is dipped into the sample, and binding shifts an interference pattern.)

The target in test [1] is T2, canine TNFα (canine, UniProt P51742 77-233, biotinylated (EZ-Link NHS-LC-biotin) in Example 2).
T2 construct: Bought recombinant protein; also called cTNFα; canine TNF-alpha
T2 sequence (P51742 77-233 limits assumed): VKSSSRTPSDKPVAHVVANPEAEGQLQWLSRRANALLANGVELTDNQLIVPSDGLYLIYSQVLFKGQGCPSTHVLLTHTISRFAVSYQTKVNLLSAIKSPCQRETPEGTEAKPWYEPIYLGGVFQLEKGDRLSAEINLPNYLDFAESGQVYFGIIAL
Described as above. As for the experimental part:
as §1

Test [2] has as its target T2, canine TNFα. The test is described as follows: BLI (biosensor Octet), format not stated.

T1 sequence (P01375 77-233 limits assumed): as the sequence (P51742 77-233 limits assumed) above, with K2R, E21Q, S30N, T44R, I49V, D53E, F83I, T109A, L138R, N140D counted along it

B1: KBA v1 (caninized TNFα D2E7 antibody: KBA VL v1 and canine kappa light constant region; caninized variable heavy chain of D2E7 and canine IgG-B constant region) (antibody, V domains shown)
VH: EVQLVESGGDLVKPGGSLRLSCVASGFTFDDYAMHWVRQAPGKGLQWVSAITWNSGHIDYADAVKGRFTISRDNAKNTLYLQMNSLRAEDTAVYYCAKVSYLSTASSLDYWGQGTLVTVSS
VL: DIVMTQTPLSLSASPGEPVSISCRASQGIRNYLAWYLQKPGQSPRLLIYAASTLQSGVPDRFSGSGSGTDFTLRIGRLEAEDAAIYYCQRYNRAPYTFGQGTKVEIKR
notes: Full light and heavy chains without leader; expressed in CHO cells, purified on Protein A; also called KIND-509
The term Kd denotes a measure of binding affinity in units of concentration. Lower therefore signals higher affinity. As a reminder, the koff is the rate constant with which the complex falls apart. Lower therefore signals a long-lived complex. Broadly, the kon is the rate constant with which the complex forms. Regarding B1, in the test with human TNFα, the dissociation constant Kd turned out to be 20.7 pM, the off-rate constant (koff) worked out at 1.53e-05 s⁻¹ and the on-rate (kon) amounted to 741000 M⁻¹ s⁻¹. Also, in the test with canine TNFα [1], the Kd was found to be 98.8 pM, the dissociation rate constant (koff) came to 8.28e-05 s⁻¹ and the kon was 839000 M⁻¹ s⁻¹.

B2: KBA v2 (caninized TNFα D2E7 antibody: KBA VL v2 and canine kappa light constant region; caninized variable heavy chain of D2E7 and canine IgG-B constant region) (antibody, V domains shown)
VH: B1 VH
VL: B1 VL with L9P, Y36F, L37R, R45Q, P59S, G76S, E81D, I85V
notes: Full light and heavy chains without leader; expressed in CHO cells, purified on Protein A
Consider B2, for which, in the test with human TNFα, the Kd is 269 pM, the koff was determined as 0.00015 s⁻¹ and the kon turned out to be 575000 M⁻¹ s⁻¹. In the test with canine TNFα [1], this molecule registered a dissociation constant Kd of 303 pM, a dissociation rate constant (koff) of 0.000216 s⁻¹ and a kon of 713000 M⁻¹ s⁻¹.

B3: bispecific molecule comprising SEQ ID NO: 77 and SEQ ID NO: 81 (anti-NGF + Fc IgGB (FcRn long-acting Q to Y, C1q-, CD16-) + anti-TNF ScFv) (bispecific antibody)
light: EIVMTQSPGSLAGSAGESVSINCRASEDIYNALAWYQQKPGERPKLLIYNTDTLHTGVPARFSSSGSGTDFTLTINNLQAEDVGDYFCQHYFGYPRTFGAGTKVELKRNDAQPAVYLFQPSPDQLHTGSASVVCLLNSFYPKDINVKWKVDGVIQDTGIQESVTEQDKDSTYSLSSTLTMSSTEYLSHELYSCEITHKSLPSTLIKSFQRSECQRVD
heavy: not shown
notes: Expressed in mammalian cells, purified on Protein A; also called bispecific anti-canine TNF and anti-canine NGF molecule
For the molecule B3, the dissociation constant (Kd) with canine TNFα [2] is 838 pM.
